# US20020082202A1 (GlaxoSmithKline, published 2002)
# No end group written: not given here.
# B1: Lig 72A (HFGAN72 receptor ligand) (peptide)
# peptide: QPLPDCCRQKTCSCRLYELLHGAGNHAAGILTL
# modifications: cysteine pairing not given here; also: N-terminus blocked
# Target: T1, HFGAN72 receptor (human, UniProt O43613 1-425)
# T1 sequence (looked up): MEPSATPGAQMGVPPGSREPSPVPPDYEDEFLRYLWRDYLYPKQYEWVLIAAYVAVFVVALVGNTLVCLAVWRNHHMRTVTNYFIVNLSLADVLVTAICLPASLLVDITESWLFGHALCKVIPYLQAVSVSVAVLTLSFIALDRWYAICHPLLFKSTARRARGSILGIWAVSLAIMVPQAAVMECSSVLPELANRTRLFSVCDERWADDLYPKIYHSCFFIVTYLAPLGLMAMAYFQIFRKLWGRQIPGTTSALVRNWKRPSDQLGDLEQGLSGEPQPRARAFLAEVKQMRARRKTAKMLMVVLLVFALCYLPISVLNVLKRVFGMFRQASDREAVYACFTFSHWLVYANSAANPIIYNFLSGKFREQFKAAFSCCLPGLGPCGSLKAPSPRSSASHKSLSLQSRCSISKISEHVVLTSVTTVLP
# Assay: cell-based or functional assay
binder,measurement,value
B1,Intracellular calcium levels in Fura-loaded 293 cells transfected with the receptor; EC50,~0.05 µg/mL
